According to US20120208744A1, “ANTI-MICROBIAL AGENTS AND COMPOSITIONS AND METHODS OF PRODUCTION AND USE THEREOF” (The Penn State Research Foundation, priority 2011, published 2012):

Tested on: E. coli
Assay: Spot titer assay (sensitivity to TonB-dependent colicins and bacteriophage)
Format: cell-based, Escherichia coli
Conditions: three platings
Procedure: Activity assays: Spot titer assays were performed. Initial rates of [^55Fe]-ferrichrome uptake were determined.
Spot titers, which are capable of detecting very low levels of TonB activity, measure sensitivity to colicins and bacteriophage that enter and subsequently kill E. coli via the TonB system. […] Consistent with their insensitivity to phage and colicins, the other 13 deletion variants supported no iron transport.

Measured: Susceptibility: highest five-fold dilution of a standard colicin preparation that provided an evident zone of clearing on a cell lawn

B1: Colicin B: TonB-dependent colicin; toxin that enters and kills E. coli via the TonB system; standard colicin preparation (protein, UniProt P05819 2-511, looked up)
Colicin-B: SDNEGSVPTEGIDYGDTMVVWPSTGRIPGGDVKPGGSSGLAPSMPPGWGDYSPQGIALVQSVLFPGIIRRIILDKELEEGDWSGWSVSVHSPWGNEKVSAARTVLENGLRGGLPEPSRPAAVSFARLEPASGNEQKIIRLMVTQQLEQVTDIPASQLPAAGNNVPVKYRLTDLMQNGTQYMAIIGGIPMTVPVVDAVPVPDRSRPGTNIKDVYSAPVSPNLPDLVLSVGQMNTPVRSNPEIQEDGVISETGNYVEAGYTMSSNNHDVIVRFPEGSGVSPLYISAVEILDSNSLSQRQEAENNAKDDFRVKKEQENDEKTVLTKTSEVIISVGDKVGEYLGDKYKALSREIAENINNFQGKTIRSYDDAMSSINKLMANPSLKINATDKEAIVNAWKAFNAEDMGNKFAALGKTFKAADYAIKANNIREKSIEGYQTGNWGPLMLEVESWVISGMASAVALSLFSLTLGSALIAFGLSATVVGFVGVVIAGAIGAFIDDKFVDELNHKIIK
T, T, T: strain RA1017 (ΔExbBD, ΔTolQRA) | strain RA1017/pKP724 (ExbB, ExbDΔ132-141) | strain RA1017/pKP752 (ExbB, ExbDΔ102-111) | strain RA1017/pKP753 (ExbB, ExbDΔ92-101) | strain RA1017/pKP754 (ExbB, ExbDΔ82-91) | strain RA1017/pKP755 (ExbB, ExbDΔ72-81) | strain RA1017/pKP756 (ExbB, ExbDΔ62-71) | strain RA1017/pKP757 (ExbB, ExbDΔ52-61) | strain RA1017/pKP758 (ExbB, ExbDΔ32-41) | strain RA1017/pKP759 (ExbB, ExbDΔ22-31) | strain RA1017/pKP760 (ExbB, ExbDΔ12-21) | strain RA1017/pKP762 (ExbB, ExbDΔ42-51) | strain RA1017/pKP763 (ExbB, ExbDΔ112-121) | strain RA1017/pKP764 (ExbB, ExbDΔ122-131)
